Measured values taken from US20250354169A1.

B1: anti-FAM19A5 ("1-65") scFv, secreted by cells transduced with scAAV9-CMV-1-65-ScFv (scFv, part only)
scFv: ALTQPSSVSANPGETVKITCSGGGSSGYGYGWYQQKSPSSAPLTVIYWNDKRPSDIPSRFSGSKSGSTHTLTITGVQAEDEAVYFCGNDDYSSDSGYVGVFGAGTTLTVLSGGGGSSGGGGSAVTLDESGGGLQTPGGALSLVCKASGFTFSSYQMGWVRQAPGKGLEWVGVINKSGSDTSYGSAVKGRATISRDNGQSTVRLQLNNLRAEDTGTYFCAKGSASYITAATIDAWGHGTEVIVSS
modifications: C-terminal FLAG tag
B2: anti-FAM19A5 ("2-13") scFv, secreted by cells transduced with scAAV9-CMV-2-13-ScFv (scFv, part only)
scFv: ALTQPSSVSANPGETVKITCSGGSYSYGWFQQKSPGSALVTVIYWDDERPSDIPSRFSGALSGSTNTLTITGVQADDEAVYFCGTEDISGTAGVFGAGTTLTVLSGGGGSSGGGGSAVTLDESGGGLQTPGGALSLVCKASGFTFSSHGMFWVRQTPGKGLEYVAEITNDGSGTNYGSAVKGRATISRDNGQSTVRLQLNNLRAEDTGTYFCARSTYECPGGFSCWGDTGQIDAWGHGTEVIVSS
modifications: C-terminal FLAG tag

Biological target: human FAM19A5-Fc protein (human) (UniProt Q7Z5A7)
Assay: binding inhibition, flow cytometry: 0.1 ug FAM19A5-Fc pre-incubated with 200 uL scFv supernatant, added to U87MG cells, detected with anti-human IgG 488; control GFP AAV supernatant

UniProt Q7Z5A7, sequence (Q7Z5A7 44-132): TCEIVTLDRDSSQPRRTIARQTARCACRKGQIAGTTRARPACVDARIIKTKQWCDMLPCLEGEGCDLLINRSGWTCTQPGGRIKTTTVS

| Binder | reduction of the MFI of the binding of human FAM19A5-Fc to U87MG cells [%] |
| --- | --- |
| B1 | 19 |
| B2 | 68 |
